Target: Nucleoside 2'-deoxyribosyltransferase from Bacillus psychrosaccharolyticus CECT 4074 (Bacillus psychrosaccharolyticus)
Test: SEC; pure BpNDT on Sepharose 12 10/300 GL column (GE Healthcare); native mass estimated

- stoichiometry N: 6
Substance: Nucleoside 2'-deoxyribosyltransferase from Bacillus psychrosaccharolyticus CECT 4074 (enzyme)

— PMC6270756
